Measurements from patent US20220251198A1 (Eli Lilly, published 2022).

T1: human FcγRIIA_131R extracellular domain (human, UniProt P12318 34-217)
T1 construct: extracellular domain; also called CD32a
T1 sequence (looked up): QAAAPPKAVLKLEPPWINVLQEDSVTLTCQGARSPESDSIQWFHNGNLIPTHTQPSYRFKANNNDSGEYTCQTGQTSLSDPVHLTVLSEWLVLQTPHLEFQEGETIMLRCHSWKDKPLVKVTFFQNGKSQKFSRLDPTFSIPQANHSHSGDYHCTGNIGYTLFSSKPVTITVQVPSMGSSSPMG

T2: human FcγRIIb extracellular domain (human, UniProt P31994 43-217)
T2 construct: extracellular domain; also called CD32b
T2 sequence (looked up): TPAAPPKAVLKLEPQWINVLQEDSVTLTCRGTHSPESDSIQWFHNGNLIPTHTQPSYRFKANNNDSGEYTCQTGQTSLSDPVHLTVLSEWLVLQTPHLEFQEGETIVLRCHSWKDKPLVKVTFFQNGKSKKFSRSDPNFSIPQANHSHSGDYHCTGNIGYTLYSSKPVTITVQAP

T3: human FcγRIIA_131H extracellular domain (human, UniProt P12318 34-217)
T3 construct: extracellular domain; also called CD32a
T3 sequence (looked up): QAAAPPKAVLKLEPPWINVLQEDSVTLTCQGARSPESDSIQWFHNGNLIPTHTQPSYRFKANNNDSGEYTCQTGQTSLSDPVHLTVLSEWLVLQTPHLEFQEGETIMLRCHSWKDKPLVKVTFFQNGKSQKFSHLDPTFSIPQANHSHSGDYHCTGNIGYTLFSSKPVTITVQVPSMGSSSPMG

T4: human CD200R expressed on cells (human, UniProt Q8TD46 25-348)
T4 chain: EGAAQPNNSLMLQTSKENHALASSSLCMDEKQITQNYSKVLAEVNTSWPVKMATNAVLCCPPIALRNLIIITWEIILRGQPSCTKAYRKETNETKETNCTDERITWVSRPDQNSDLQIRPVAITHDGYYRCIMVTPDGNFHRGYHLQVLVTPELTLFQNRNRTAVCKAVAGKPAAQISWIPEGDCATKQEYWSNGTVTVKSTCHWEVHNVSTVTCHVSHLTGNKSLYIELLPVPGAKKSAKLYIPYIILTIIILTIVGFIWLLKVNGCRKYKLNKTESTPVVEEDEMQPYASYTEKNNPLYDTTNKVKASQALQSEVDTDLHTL

T5: cynomolgus monkey CD200R (purified soluble receptor, SPR analyte) (cynomolgus monkey, UniProt Q8TD46 25-265 (human entry))
T5 construct: Purified by IMAC and size exclusion chromatography; also called cyno CD200R
T5 chain: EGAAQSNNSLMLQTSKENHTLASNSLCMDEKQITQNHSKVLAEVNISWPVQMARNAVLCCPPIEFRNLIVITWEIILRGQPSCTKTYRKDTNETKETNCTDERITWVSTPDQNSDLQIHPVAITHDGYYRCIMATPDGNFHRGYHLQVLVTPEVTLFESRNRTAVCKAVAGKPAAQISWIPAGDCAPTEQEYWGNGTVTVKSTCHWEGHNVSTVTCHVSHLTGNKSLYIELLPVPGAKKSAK

T6: human CD200R (purified soluble receptor, SPR analyte) (human, UniProt Q8TD46 29-265, limits assumed)
T6 construct: Purified by IMAC and size exclusion chromatography; also called hCD200R; human CD200 receptor
T6 chain: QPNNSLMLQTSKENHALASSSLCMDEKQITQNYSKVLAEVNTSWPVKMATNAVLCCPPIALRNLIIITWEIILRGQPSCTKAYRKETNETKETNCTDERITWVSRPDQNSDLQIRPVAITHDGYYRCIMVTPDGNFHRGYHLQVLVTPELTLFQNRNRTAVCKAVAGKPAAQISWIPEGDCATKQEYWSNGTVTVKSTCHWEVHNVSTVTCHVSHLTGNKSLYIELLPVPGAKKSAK


Experiments:
[1] = molecular target: T1, human FcγRIIA_131R extracellular domain; test: SPR at 25 C, antibody captured on Protein A, FcγR ECD analyte, steady state
Experimental: (§1) Biacore® T100 instrument and Biacore® 3000 (GE Healthcare, Piscataway, NJ), Biacore® reagents and Scrubber2 Biacore® Evaluation Software (Biologics 2008) are used for the SPR analysis of antibody binding. A CM5 chip (Biacore® P/N BR-1006-68) is prepared using the manufacturer's EDC/NHS amine coupling method (Biacore® P/N BR-1000-50). Briefly, the surfaces of all 4 FCs are activated by injecting a 1:1 mixture of EDC/NHS for 7 minutes at 10 μL/minute. Protein A (Calbiochem P/N 539202) is diluted to 100 μg/mL in 10 mM acetate, pH 4.5 buffer and immobilized for approximately 400 RU onto all 4 flow cells by 7 minute injection at a flow rate of 10 μL/minute. Un-reacted sites are blocked with a 7-minute injection of ethanolamine at 10 μL/minute. Injections of 2×10 μL of glycine pH 1.5 are used to remove any non-covalently associated protein.
(§2) For FcγRIIa, FcγRIIb, and FcγRIIIa binding, antibodies are diluted to […] in running buffer, and approximately 500 RU of each variant is captured in flow cells 2 through 4 (RUcaptured). FC1 is the reference flow cell. Fcγ receptor ECDs are diluted to 10 μM in running buffer and then 2 fold serially diluted in running buffer to 39 nM. Duplicate injections of each concentration are injected over all FCs at 40 μL/minute for 60 seconds followed by a 120 second dissociation phase. Regeneration is performed by injecting 15 μL of 10 mM glycine pH 1.5 at 30 μL/min over all FCs.
(§3) Reference-subtracted data is collected as FC2-FC1, FC3-FC1, and FC4-FC1. The measurements are obtained at 25° C. The affinity (KD) is calculated using the steady state equilibrium analysis with the Scrubber 2 Biacore® Evaluation Software.

[2] = molecular target: T7, human FcγRIIIA_158V extracellular domain (human, UniProt P08637 17-208); test: as above
T7 construct: extracellular domain; Allotype with Val at 158 (numbering as in the label); also called CD16a
Experimental: as §1, §2, §3

[3] = molecular target: T2, human FcγRIIb extracellular domain; test: as above
Experimental: as §1, §2, §3

[4] = molecular target: T3, human FcγRIIA_131H extracellular domain; test: as above
Experimental: as §1, §2, §3

[5] = molecular target: T8, human FcγRI extracellular domain (human, UniProt P12314 16-292); test: SPR at 25 C, antibody captured on Protein A, FcγR ECD analyte
T8 construct: extracellular domain; also called CD64
Experimental: as §1
Reference-subtracted data is collected as FC2-FC1, FC3-FC1, and FC4-FC1. The measurements are obtained at 25° C. The affinity (KD) is calculated using either steady state equilibrium analysis with the Scrubber 2 Biacore® Evaluation Software or a “1:1 (Langmuir) binding” model in BIA Evaluation.

[6] = molecular target: T4, human CD200R expressed on cells; test: cell-based or functional assay
[7] = molecular target: T5, cynomolgus monkey CD200R (purified …); test: SPR at 37 C, antibody captured on Protein A, receptor analyte, 1:1 model; n=3
[8] = molecular target: T6, human CD200R (purified soluble …); test: as above
[9] = molecular target: T9, human FcγRIIIA_158F extracellular domain (human, UniProt P08637 17-208); test: SPR at 25 C, antibody captured on Protein A, FcγR ECD analyte, steady state
T9 construct: extracellular domain; Allotype with Phe at 158 (numbering as in the label); also called CD16a
Experimental: as §1, §2, §3

T8 sequence (P12314 16-292): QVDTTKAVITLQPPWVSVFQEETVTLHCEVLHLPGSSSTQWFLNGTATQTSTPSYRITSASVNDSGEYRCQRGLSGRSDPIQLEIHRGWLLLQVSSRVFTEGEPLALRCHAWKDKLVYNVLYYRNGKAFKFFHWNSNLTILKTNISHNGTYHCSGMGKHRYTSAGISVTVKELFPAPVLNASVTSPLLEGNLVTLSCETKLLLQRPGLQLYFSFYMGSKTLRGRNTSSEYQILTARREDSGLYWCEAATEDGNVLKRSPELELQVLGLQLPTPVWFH
T7 sequence (P08637 17-208 F176V): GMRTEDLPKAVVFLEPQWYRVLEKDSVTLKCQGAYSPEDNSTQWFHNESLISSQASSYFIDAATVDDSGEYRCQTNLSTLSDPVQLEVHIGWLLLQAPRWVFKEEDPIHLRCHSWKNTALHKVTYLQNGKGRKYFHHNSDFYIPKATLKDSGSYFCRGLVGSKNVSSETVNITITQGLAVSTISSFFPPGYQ
T9 sequence (P08637 17-208): as the sequence (P08637 17-208 F176V) above, with V160F counted along it

| Kd [1] [nM] | Kd [2] [nM] | Kd [3] [nM] | Kd [4] [nM] | Kd [5] [nM] | Kd [9] [nM] | Binder | IC50 of inhibition of IC-stimulated IL-8 release, human CD200R-expressing U937 cells [6] [µg/mL] | IC50 of inhibition of immune-complex induced IL-8 secretion, U937 cells expressing human CD200R (average of 3 experiments) [6] [µg/mL] | Kd [7] [nM] | Kd [8] [nM] |
| --- | --- | --- | --- | --- | --- | --- | --- | --- | --- | --- |
| 1700 | 4300 | 2200 | 3900 | 0.369 |  | Antibody I-4P (antibody, human IgG4 S228P, kappa, Xaa at position 1 is either glutamine or pyroglutamic acid; Xaa at position 446 is either glycine or absent, Humanized IgG4P (S228P), kappa; also called IgG4SP; Antibody I-4P-AF647 (AF647-labelled form used as stain)) heavy: not shown light: EIVLTQSPDFQSVTPKEKVTITCQASESIDSYLLWYQQKPDQSPKLLIKQASTLASGVPSRFSGSGSGTDFTLTINSLEAEDAATYYCQNYYDISSNDFGGGTKVEIKRTVAAPSVFIFPPSDEQLKSGTASVVCLLNNFYPREAKVQWKVDNALQSGNSQESVTEQDSKDSTYSLSSTLTLSKADYEKHKVYACEVTHQGLSSPVTKSFNRGEC | 0.07 | 0.2 | 2.3 | 5.6 |
| 600 | 200 | 2800 | 500 | 0.0489 | 900 | Antibody I-IgG1 (antibody, Xaa at position 1 is either glutamine or pyroglutamic acid; Xaa at position 450 is either lysine or absent, Same HCVR, LCVR and LC as Antibody I-4P; IgG1 heavy chain) heavy: not shown light: EIVLTQSPDFQSVTPKEKVTITCQASESIDSYLLWYQQKPDQSPKLLIKQASTLASGVPSRFSGSGSGTDFTLTINSLEAEDAATYYCQNYYDISSNDFGGGTKVEIKRTVAAPSVFIFPPSDEQLKSGTASVVCLLNNFYPREAKVQWKVDNALQSGNSQESVTEQDSKDSTYSLSSTLTLSKADYEKHKVYACEVTHQGLSSPVTKSFNRGEC |  |  |  |  |
